# Data: the DeepSol protein solubility set
# Experiment: soluble on expression in E. coli; label from the status in PepcDB or PDB records
row,Sequence,soluble on expression in E. coli
1,KLIAATGCPTGIAHTFMAQEALEQAAKEKGVSIKVETHGQVGVENELTPAEIAGAKAVIIAADKDVQAERFAGKRVIEVSVADGIKKADQLIADALAGKGQIK,not soluble
2,KQLLFMHSSASVESLERPYLETMPGQYAAEITLFEWLDFLLERGGVKRALKAIEYYETVGWVSADAAERLQGHVRGFSGPADDDSHSDLEMSDHVLSLVYIARLSSMQ,not soluble
3,KQLLTLKIKCSNQPERQILEKQLPDSMTVQKVKGLLSRLLKVPVSELLLSYESSKMPGREIELENDLQPLQFYSVENGDCLLVR,soluble
4,KQQKDGSWLMDALIPLNELKYKLGLTTIEGEESEGFQTLNGFLTWWLGRLPHAGELVDYEGWQFEVLNVKHHRIVQVKVSRETESETTTDTNDGDANP,not soluble
5,KRSKVLSQASKNAEQFEDKFWSGTDLSQLYQKVKGRKDEIAGTEEIFFAGFTEFARLRKSNANSPAYIMEGTGRAMRVAVAREVDELETS,not soluble
6,KVGFKIGGGMEYGFNEIWSLQPSLFVSSKGAKKDELSVNAVYLELPVMAAARFKVADNTNIVLSAGPYFACGIAGNSKVDLGKGRLEVDTFGDDGLLKRGDVGLGIGVAAEFGKIIAGLDGQFGFVDVMDNVNGKNLNLSISVGYKF,not soluble
7,KYIDRAGKLAYDSHIAYHRIKGLSQTVLERVQEAVVVINAEGLAVLFNRKAKDLFPALEIGRRAGLSDSAAELWDQASPHTFEYVLGTPGLNAGIRAVPVNKGSDKLLILYIRPQSEIQAEALSVKLAALGQLTANLAHEIRNPMSAIRHANDLLRENMEAGAADPFNAKLCKIIDGNICRIDKMLEDISSLNKRNKTERETIGLIPFWEEFKQEFLLGHPDAADCIRPDIQGGSPTAYFDPAHLRQIMWNLANNAWRHSRKQPGSISVTIRPAQKNTVCILFADRPKCRNTCSNPFTPRRKTAPASGCMSPANWRTPISAI,not soluble
8,KYNMGNANYRIQKELHNFLNNPPINCTLDVHPNNIRIWIVKYVGLENTIYANEVYKLKIIFPDDYPLKPPIVYFLQKPPKHTHVYSNGDICLSLLGDDYNPSLSISGLVLSIISMLSSAKEKKLP,soluble
9,LAAQMEQTDIELLWKQLEQTPGAQVTVSLEERTVTCEGNVYPFFVDDYTRWRLMEGLDDVGLTLRKEAEIAAFEARRPSFKPVTQ,not soluble
10,LAGLALAATLLATGKRPVPDQLAGYHETTLSVGHRDVPVSLHIWYPAAQDGTAELVGQNALFYGQYVLRDAKPAPGAHPVVVFSHGSGGNANNHGWLATELARQGMIVVAPNHPGTMSRDSDPHRTPHIWERARDLHAILDSLETNPPLGMQPDMDRVASAGFSLGGFSALSIAGVRVSKAAFIDYCDRHAGEFDCGWMQAASVDFAAIDPAAYEADYRDPRIKATVSIDPALPQAMTGDSLTAATLPILLVSLGQGEEVPPATRVDAMARQMPQARLVETPGAWHFSFLSECSTLGWIIIGLMGEENICSDIGMRDRGVLHEELKAVISTFLS,not soluble
11,LAMEVGSDSITLTSANTSADAKSVQLFEDFSCSHCSELSLATDADMKTQIEDGNLVVEIKPLNFLDRENIDGHSTHALAAALAVADSNDATLYWNFRAFLMEDQSEIYNQWSDDDFADGVEALGADSSVVDAIRNGDNIQRAYDLATANGEELTEETGSL,not soluble
12,LAQPAMAMVGSRNATPQGLANADAFAEAASNAGFCIISGLAQGIDTAAHQGGLRGASSSMAIVGTGLDLVYPSRNHELAHKLANEGGLISEFPLGTPAISRNFPRRNRIISGMCHACLVVEATLYSGSLITARLALEQGREVMAIPGSIHSPLSKGCHALIKQGAKLVENIQDILDE,not soluble
13,LAQRAGILCREFAIGFGPKIFSFKKNETVYTIRLLPVGGFVRMAGEDPEMIEVKPGYTVGLLFNKEDQVEKVIINQKEKYPDALVIEVETADLEHDMKITGYEQGKEDELSSFTVSETSFFIVDGEEVQIAPYNRQFGSKPVWQRIKA,not soluble
14,LARSMACNSETLSELSFALTVGQKANDCDWFVGNSLIVRLLDMTGELNQKNVYTNRGASGIDGLVATAVGVQLANDKPLLALVGDTSLLYDLNSLALLKQATQPMVVVVMNNDGGGIFDLLPVNEKKKDDFYRMPHQLEFSHAAAMFGLSYHRPETLSCAMSMINDGLEKGIHLIEINTPAGQSGEELTRLFQTIQHAALF,not soluble
15,LESYLLDSERSKVIREMNETYTEFNYKETKKNLEGLASSLEHKYLVEASSLDEGLDEILTLHRLKVPGLLRISFLTTNLIELARETARDIMGRVRGWSKGNQVLRWLSCVFLHARNSLSK,not soluble
16,LGFFNRIEKTEKDKSQIDFGSIHGTGWLIDWKEVDKKDKKANKFTVYLATNLHVIQALKNREDHPPYNQFDINFVRTVDFRIGKYTDVKQFVAPS,not soluble
17,LIEGSERLSGLTDVDEVIKDLSRLLRKLVKTRWIAVYFFDRERRDFAPARSTGLPASFLPVFREMPLAPDKIPLLKSMLRKRQHLMLTDPGSSDLLTPKLRKLLRNLCVLAVPMVVRTQVIGAVFMARTRDNPPFSDAETAIIRDLVSHAALVVSHMQLFDE,soluble
18,LITFRCRSYANVTMFGDIALEMIKMMGHSGTVPGSISAQDVPDALSKLTSALSAKNAAEENLPTDVDVDEKEEQVEPAVSLGRRAFPLIELLKSAIKEECEVMWD,not soluble
19,LITMNYNSPTIGMHQNLTIILPEDVTFFDSSTTAKHLKSMLLLHGLSSDETTYIRYTSIERYANEHQLAIIMPNVDHSGYANMVYGHSYYDYILEIYEYVHQILPLSRKREDNFIAGHSMGGYGTIKFALTQSDKFAKAAPLSAVFEAQRFIDLDWTDFSPQSITGNNTQIKGTELDTYYLLDQAIDANVDIPELFIMCGKEDFLYHDNLQFIETLNKKGVSYKFEDGPGNHDYAYWDRAIKRAIEWFVQ,not soluble
20,LKAVNAKKDAKKIDFYEDFSCPHCAELGEVTDGPMTKAIENGDIVVNLRILNFLDRDGDDGNSTKAGAAALAVAQSGDWETYWNYRALLMKEQKNIYGKWGDNDFADVAKSLGASDEVTQKIREGGAKEDFRKFAEANSKKLEKDGGSVSSPRVFIDGKEVKNGIETWVEQATS,not soluble
21,LKLKDRVKLFLTPQNALFEVLQKYSEDFLNGEEVVKDNFKIDTAAAMSFSAVFACNRVLSETLASCPIMLYEKDDKGNRRQVTDTAEYGVLHYAPNAEMTPVQFKEFGMTNINLGGNFIAQKVFNMHGELLELRPIAWDRVRIDIDKSTGRLLYYIDGKQEPKTRDEIFHIPGLTLDGYIGITPLSYAALTIDIGLSQDTFERNFYHNRASTSGIFQYPNELSDEAFQRLKKDIKKNYTGLSNAGVPMILEGGGQFKEITMKLTDAQFLESKRFRIEDVCRIFRVPLHLVQDLTRSTNNNIEHQSLEFIVYTMLPWFKKWEENLNLQLLSKESRRKNRYFEFNISGLLRGDIKSRYEAYAQGRQWGWLSVNDIRRLENMNPIDNGDRYLEPLNMSEAGKQEEQLKALREEIFNMINERK,soluble
22,LKQQQQQQQQQQQQQQQQQQQQQQQQQQQQQQQQQQQQQQQQQQQQQQQQQQQQQQQQQQQQQQQQQQKSQNRTKQEQGQQSQNQQDAENKKEKQESEHKAKQQKAETEVEKQGEQKKGEPMQAQAQPEKSHQDDPEFRRLEAVESARDPSFLIRAQMQLQAQQKQRPQQSQKEW,not soluble
23,LKYMYKIDDDKKYILYCPTWRGNQRKEVTQINLKDLLKYLPENYEIIVKLHPNESHLRTRYNQIDNRIHCYFNELVDIQELYILSECMITDYSSTIFDYIHLNKPVFILQEDEQQYKQSVGFYFDLFEVGDFLKASLNERMLAKQICSTDYINYSKVVHRLMKQDSSKSSEKLMAEILGEPEYPSSSNCKQQIS,not soluble
24,LLDVMMDIFRRRELDLPCDGGAPQAPRPLKDHPRTPTDRGDADPRDAASHGLGTDRFPDLPTPEQDPRHPYRPGSQTLRPLRPLRPLRPLRPHGR,not soluble
25,LLNQGGEKLLDYYFTKTNYMERENARRYNDLRDYVKKNKLSTEDTDRLAEWVRRQEVVWMQMYRDHILLYDSQFPYMKANPEYHVTGQFYEWNGYEMIDFQDGEALVFLTGMYTYQFFNY,not soluble
26,LMRSPKQKQLEVDHANKTNLKPKAIVNCDLFQLGDYCVFTFKKLSFKQRFKQDFFARSKFSFRS,soluble
